Experimental findings from publication PMC5998137, “Regulation of the β-hemolysin gene cluster of Streptococcus anginosus by CcpA” are described below.

The target of the data set is CcpA (Streptococcus anginosus, UniProt A0A412PPL7 1-334). In words: EMSA; 0.5-8 µg CcpA, 5 pmol probe; no HPr or fructose-1,6-bisphosphate; 500-fold unlabeled creC inhibits the shift. The note with it: protein: recombinant; tags: N-terminal His6; chain copies: 2; label: 5' IRDye700 on strand 1 (probe); blunt.

B1: creC (dsDNA)
DNA 1: GTTTACGCGAAAGCGCTTTTTTTATATA
DNA 2: TATATAAAAAAAGCGCTTTCGCGTAAAC
As for B1, the binding result is listed as “binds”.
